Reference: patent US5514538A, “Bicarbonate assay and phosphoenolpyruvate carboxylase enzyme from hyphomicrobium” (Genzyme Limited, priority 1990, dated 1996)
Where a name gives a salt, the structure may show the parent alone. Read-outs that look alike come from different tables or passages of the source.

What was measured:
[1] = test system: PEPC; assay: Effect of calcium and Mg^2+ on PEPC activity; assay type: biochemical, Hyphomicrobium
[2] = test system: Hyphomicrobium PEPC; conditions: pH 8.0, 167 mM Tricine buffer + 1 mM MgCl2
Experimental: The effect of bicarbonate on the activity of PEPC was evaluated at pH 8.0 in 167 mM Tricine buffer+1 mM MgCl2.

[3] = test system: Hyphomicrobium PEPC; assay: Km of Hyphomicrobium PEPC with phosphoenol pyruvate salts; assay type: biochemical; conditions: pH 7.0 and 25° C.
Experimental: The Km's of Hyphomicrobium PEPC were checked with both sodium bicarbonate and phosphoenol pyruvate as substrates.
The result is 0.91 mM for the tricyclohexylammonium salt.

[4] = isolated enzyme
[5] = pH 7
[6] = lyophilised
Experimental: Stability trials have been conducted on lyophilised enzyme, at 4° C., 25° C. and 37° C.
All recoveries are based on specific activity to rule out weighing errors.

[7] = Effect of pH on the activity of PEPC; assay type: biochemical
Experimental: The effect of pH on the activity of PEPC was evaluated. Lyophilised enzyme was resuspended (10 mg/ml)) in 167 mM Tricine pH 8.0 (+1 mM MgCl2) and diluted to a concentration of 1 u/ml. The enzyme was then assayed in the following buffer systems. At pH 6.0, 8.0 and 9.0 Tricine (150 mM) was used. At pH 6.5 and 7.0 bis-tris (150 mM) was used.

[8] = Storage of enzyme on anion exchange gel: recovery and pool specific activity; assay type: physicochemical
Experimental: (§1) (b) Column chromatography involves the use of a strong anion exchanger such as Fractogel-TMAE, DEAE sepharose, Q sepharose, DE 52 or QA 52.
(§2) For a large volume of enzyme solution, the absorption can be is carried out as a batch up-take. The gel also has a batch wash prior to packing into the column for a gradient elution.
(§3) The gradient is of increasing salt concentration. The active fractions are pooled to give a specific activity of >30 U/mg but some fractions contain enzyme of 60 U/mg protein.
If stored for longer, then the recoveries begin to decrease.

[9] = Effect of temperature on the activity of PEPC; assay type: biochemical; conditions: 167 mM tricine pH 7.0, 1 mM MgCl2
Experimental: The effect of temperature on the activity of PEPC was evaluated. Lyophilised enzyme was resuspended in 167 mM tricine buffer pH 7.0 containing 1 mM MgCl2 at a concentration of 300 u/l. The enzyme was then assayed at the desired temperature using the recommended reagents.

[10] = Stability of reconstituted enzyme with azide; assay type: physicochemical
Experimental: The enzyme was stored in assay buffer (167 mM Tricine/HCl with 15 mM MgCl2, pH 8.0).

[11] = Effect of pH on the enzyme activity (buffers and pH changed); assay type: biochemical
Text: The effect of pH on the enzyme activity was checked by changing the buffers as well as pH values. Once again, at pH 7 Bis-tris was used.

[12] = pH stability of enzyme solutions stored at 25° C.; assay type: physicochemical
Experimental: For pH 6.0, 8.0 and 9.0, 150 mM Tricine+1 mM MgCl2 was used. For pH 7.0 150 mM bis-tris+1 mM MgCl2 was chosen. Solutions were stored at 25° C.

[13] = Specific activity of PEPC (malate dehydrogenase/NADH-coupled assay, A340); assay type: biochemical
Experimental: (a) Lysis is performed with a solution of Triton X-100, a non-ionic detergent. It is added to resuspended cells (10% w/v) at 1% v/v. Lysis usually takes about 1 to 1.5 hours at 15° to 20° C. Once lysis is complete, the cell debris is removed by centrifugation with the aid of streptomycin sulphate.
as §1, §2, §3
Lyophilised PEPC powder is obtained, having the following characteristics:
A 167 mM Tricine. HCl buffer, pH 8.0, containing 16.7 mM MgCl2
B 20.7 mM sodium bicarbonate in Reagent A
C 217 mM phosphoenolpyruvate in Reagent A
D 10 mM NADH solution, the concentration of which is checked in the following way:
1 Dispense 0.98 ml of Reagent A into a cuvette and zero a spectrophotometer set at 340 nm with this cuvette
2 Add 0.02 ml of Reagent D to this cuvette and mix thoroughly
E 700 U/ml malate dehydrogenase
1 Adjust spectrophotometer to 340 nm and 25° C.
2 Prepare a reagent cocktail as follows:
Into a 50 ml beaker dispense; 46.0 ml Reagent B 1.0 ml Reagent C
This cocktail is stable for 8 hr when stored at 4° C.
3 Dispense 0.94 ml of the reagent cocktail into a cuvette together with 0.02 ml of Reagent D, and 0.02 ml of Reagent E
Incubate the cuvette in the spectrophotometer at 25° C. to attain temperature equilibration and then establish background rate, if any
4 Dilute the enzyme to approximately 1.5 U/ml in reagent A, and initiate the reaction by adding 0.02 ml of this solution to the cuvette
5 Calculate the change in absorbance (ΔA/rain) over the linear portion of the reaction [formula]

[14] = after anion exchange gradient elution

Compound: [Mg+2] [Mg^2+]
- activation of the enzyme [1]: only effective activator of the enzyme
- activation, chloride vs sulphate ([1]; chloride compound compared with sulphate): works better as the chloride compound than as the sulphate

Compound: [Ca+2] [calcium]
- effect on PEPC activity ([1]; low concentrations): inhibitory effect

Compound: O=C(O)O [bicarbonate, sodium bicarbonate]
- Km [2]: 1300 µM
- Km ([2]; read-out: Km (probable, without dissolved carbon dioxide from the atmosphere)): < 1000 µM

Compound: C=C(OP(=O)(O)O)C(=O)O [tricyclohexylammonium salt, phosphoenol pyruvate]
- Km [3]: 910 µM
- Km, comparison of PEP salts [3]: very similar

Compound: phosphoenolpyruvate carboxylase [PEPC]
- pH profile [4]: broad pH profile
- stability and activity [5]: better stability and activity
- % activity recovered ([6]; 0 days, 4° C.): 100%
- % activity recovered ([6]; 0 days, 25° C.): 100%
- % activity recovered ([6]; 0 days, 37° C.): 100%
- % activity recovered ([6]; 3 days, 25° C.): 95%
- % activity recovered ([6]; 3 days, 37° C.): 97%
- % activity recovered ([6]; 7 days, 4° C.): 83%
- % activity recovered ([6]; 7 days, 25° C.): 83%
- % activity recovered ([6]; 7 days, 37° C.): 87%
- % activity recovered ([6]; 10 days, 25° C.): 94%
- % activity recovered ([6]; 10 days, 37° C.): 91%
- % activity recovered ([6]; 18 days, 4° C.): 92%
- % activity recovered ([6]; 18 days, 25° C.): 88%
- % activity recovered ([6]; 18 days, 37° C.): 90%
- % activity recovered ([6]; 24 days, 25° C.): 90%
- % activity recovered ([6]; 24 days, 37° C.): 87%
- % activity recovered ([6]; 50 days, 4° C.): 114%
- % activity recovered ([6]; 77 days, 4° C.): 110%
- relative activity ([7]; pH 6.0, Tricine (150 mM)): approximately 70%
- relative activity ([7]; pH 6.5, bis-tris (150 mM)): ~85%
- relative activity ([7]; pH 7.0, bis-tris (150 mM)): ~115%
- relative activity ([7]; pH 8.0, Tricine (150 mM)): ~100%
- relative activity ([7]; pH 9.0, Tricine (150 mM)): ~90%
- Pool S/A ([8]; 0 days stored on gel): 37.4 U/mg
- Total recovery ([8]; 0 days stored on gel): 91%
- Pool S/A ([8]; 2 days stored on gel): 33.0 U/mg
- Total recovery ([8]; 2 days stored on gel): 85%
- Pool S/A ([8]; 4 days stored on gel): 28.1 U/mg
- Total recovery ([8]; 4 days stored on gel): 76%
- Pool S/A ([8]; 8 days stored on gel): 26.9 U/mg
- Total recovery ([8]; 8 days stored on gel): 60%
- loss of activity on gel ([8]; held on the gel overnight): no loss of activity
- relative activity ([9]; 20° C.): approximately 10%
- relative activity ([9]; 50° C.): 100%
- relative activity ([9]; 55° C.): approximately 10%
- % activity recovered ([10]; pH 8.0, 4 days, 4° C.): 94%
- % activity recovered ([10]; pH 8.0, 4 days, 25° C.): 104%
- % activity recovered ([10]; pH 8.0, 4 days, 37° C.): 2%
- % activity recovered ([10]; pH 8.0, 7 days, 4° C.): 96%
- % activity recovered ([10]; pH 8.0, 7 days, 25° C.): 92%
- % activity recovered ([10]; pH 8.0, 7 days, 37° C.): 0%
- % activity recovered ([10]; pH 8.0, 14 days, 4° C.): 94%
- % activity recovered ([10]; pH 8.0, 14 days, 25° C.): 93%
- % activity recovered ([10]; pH 8.0, 30 days, 4° C.): 100%
- % activity recovered ([10]; pH 8.0, 30 days, 25° C.): 86%
- % activity recovered ([10]; pH 8.0, 42 days, 4° C.): 105%
- % activity recovered ([10]; pH 8.0, 42 days, 25° C.): 85%
- % activity recovered ([10]; pH 8.0, 63 days, 4° C.): 105%
- % activity recovered ([10]; pH 8.0, 63 days, 25° C.): 66%
- % activity recovered ([11]; pH 6): 65.5%
- % activity recovered ([11]; pH 6.5): 74.5%
- % activity recovered ([11]; pH 7.0, Bis-tris): 100%
- % activity recovered ([11]; pH 8.0): 88.2%
- % activity recovered ([11]; pH 9.0): 74.5%
- % activity recovered ([12]; pH 6, 7 days, Tricine): 69%
- % activity recovered ([12]; pH 6, 12 days, Tricine): 45.5%
- % activity recovered ([12]; pH 7, 7 days, bis-tris): 99%
- % activity recovered ([12]; pH 7, 12 days, bis-tris): 78.2%
- % activity recovered ([12]; pH 8, 7 days, Tricine): 81.8%
- % activity recovered ([12]; pH 8, 12 days, Tricine): 67.3%
- % activity recovered ([12]; pH 9, 7 days, Tricine): 78.2%
- % activity recovered ([12]; pH 9, 12 days, Tricine): 56.4%
- specific activity of pooled active fractions [13, 14]: > 30 U/mg
- specific activity of some fractions [13, 14]: 60 U/mg protein
- Powder activity ([13]; lyophilised PEPC powder): > 10 U/mg
- Specific activity ([13]; lyophilised PEPC powder): > 25 U/mg Protein
